Results from the Human Domainome abundance scans (Beltran et al. 2025).

B1: FERM and PDZ domain-containing protein 4, residues 75 to 154; numbered along this chain, Q14CM0 (parent)
chain: APRKVEMRRDPVLGFGFVAGSEKPVVVRSVTPGGPSEGKLIPGDQIVMINDEPVSAAPRERVIDLVRSCKESILLTVIQP
B2: Androgen receptor, residues 557 to 632; numbered along this chain, P10275 (parent)
chain: QKTCLICGDEASGCHYGALTCGSCKVFFKRAAEGKQKYLCASRNDCTIDKFRRKNCPSCRLRKCYEAGMTLGARKL

Variants of: B1
Assay: abundance fitness (aPCA) (normalised: wild type 0, dead -1); higher = more abundant; growth selection in yeast, the domain comes from the species named
Settings: Homo sapiens

Abundance fitness of substitutions, site by site:
A1: P -0.734, Q -0.704, G -0.157, T -0.278, I 0.122, W -0.569, D -0.046, C 0.003, S -0.207, Y -0.14, V -0.207, F -0.199, E -0.329, M -0.227
E6: K 0.002, I -0.006, V -0.091, W -0.047, G -0.144, R -0.029, C -0.065, L -0.018, M -0.061, A -0.086, F 0.043, S -0.016, P -0.184, H 0.039, Y 0.007, T -0.009, N -0.014, Q -0.03
R8: G -0.052, W -0.043, D 0.029, L -0.011, I 0.006, V -0.038, Q 0.018, H -0.058, M -0.014, C -0.12, N -0.09, S -0.024, F 0.013, A -0.009, Y -0.059, P -0.116, E 0.034
M7: Y -0.835, R -0.967, Q -0.937, V -0.034, C -0.247, K -1, N -1.07, A -0.213, F -0.085, T -0.36, E -0.918, S -0.535, H -1.01, D -1.08, G -0.877, I 0.018, W -1.02, L 0.04
R9: P -0.086, T -0.277, Y -0.089, S -0.152, I -0.142, W -0.089, D -0.792, A -0.066, Q -0.3, G -0.402, F -0.031, N -0.157, H -0.227, K -0.031, E -0.382, C -0.19, M -0.149, V -0.217
V5: Y -0.107, M -0.192, R -0.679, A -0.219, H -0.349, L -0.154, D -0.976, G -0.997, E -0.192, N -0.778, S -0.623, K -0.749, C -0.556, F -0.085, T -0.325, Q -0.522
K4: R 0.114, L -0.068, N -0.218, S -0.084
P11: D -0.063, E -0.117, A -0.137, C -0.243, F -0.329
D10: L -0.369, F -0.535, R -0.455, W -0.422, Q -0.32, E -0.27, C -0.138, S -0.099, K -0.42, T -0.38, H -0.12, Y -0.521, M -0.207, V -0.214, I -0.364, G -0.591, N -0.071
R3: H -0.176, D -0.659, M -0.188, S -0.451, Q -0.243, C -0.985, T -0.338, F -0.194, Y -0.197, P -0.937, L -0.238, E -0.517, I -0.099, N -0.299, K -0.036, V -0.165, W -0.769, G -0.666
P2: G 0, T 0.007, Y -0.004, D -0.083, I 0.019, C -0.066, L -0.015, E 0.044, H 0.023, N -0.003, W -0.119, K -0.051, V -0.049, M 0.023, A -0.074, R -0.01, F -0.012

Variants of: B2
Assay: as above
Settings: Homo sapiens

Abundance fitness: each site, then its substitutions
R52: H -0.076, W -0.311, V 0.041
C46: P -0.926, A -0.904
